Assay results reported in paper PMC10585736 (2023).

B1: Pol30p (PCNA), wild type, of the POL30-0 strain [S. cerevisiae] / Rrm3p-Myc [S. cerevisiae] (parent complex)
chain 1: MLEAKFEEASLFKRIIDGFKDCVQLVNFQCKEDGIIAQAVDDSRVLLVSLEIGVEAFQEYRCDHPVTLGMDLTSLSKILRCGNNTDTLTLIADNTPDSIILLFEDTKKDRIAEYSLKLMDIDADFLKIEELQYDSTLSLPSSEFSKIVRDLSQLSDSINIMITKETIKFVADGDIGSGSVIIKPFVDMEHPETSIKLEMDQPVDLTFGAKYLLDIIKGSSLSDRVGIRLSSEAPALFQFDLKSGFLQFFLAPKFNDEE
chain 2: MFRSHASGNKKQWSKRSSNGSTPAASASGSHAYRQQTLSSFFMGCGKKSAAASKNSTTIIDLESGDEGNRNITAPPRPRLIRNNSSSLFSQSQGSFGDDDPDAEFKKLVDVPRLNSYKKSSRSLSMTSSLHKTASASTTQKTYHFDEDETLREVTSVKSNSRQLSFTSTINIEDSSMKLSTDSERPAKRSKPSMEFQGLKLTVPKKIKPLLRKTVSNMDSMNHRSASSPVVLTMEQERVVNLIVKKRTNVFYTGSAGTGKSVILQTIIRQLSSLYGKESIAITASTGLAAVTIGGSTLHKWSGIGIGNKTIDQLVKKIQSQKDLLAAWRYTKVLIIDEISMVDGNLLDKLEQIARRIRKNDDPFGGIQLVLTGDFFQLPPVAKKDEHNVVKFCFESEMWKRCIQKTILLTKVFRQQDNKLIDILNAIRYGELTVDIAKTIRNLNRDIDYADGIAPTELYATRREVELSNVKKLQSLPGDLYEFKAVDNAPERYQAILDSSLMVEKVVALKEDAQVMMLKNKPDVELVNGSLGKVLFFVTESLVVKMKEIYKIVDDEVVMDMRLVSRVIGNPLLKESKEFRQDLNARPLARLERLKILINYAVKISPHKEKFPYVRWTVGKNKYIHELMVPERFPIDIPRENVGLERTQIPLMLCWALSIHKAQGQTIQRLKVDLRRIFEAGQVYVALSRAVTMDTLQVLNFDPGKIRTNERVKDFYKRLETLK

Variants of: B1
Experiment: co-immunoprecipitation, western blot band quantification; α-Myc IP; parent: 2.1; read off a plot

response | Variant
~1.8 pixel density fold over input signal | chain 1 L126A, chain 1 I128A
